Molecular target: ndufs4^-/- complex I (N-module plus QP subcomplex) (mouse (endogenous in heart and kidney)) (UniProt Q91YT0)
Assay: cryo-EM structure

assembly factor NDUFAF2 (natural protein), sequence (Q59J78 whole entry): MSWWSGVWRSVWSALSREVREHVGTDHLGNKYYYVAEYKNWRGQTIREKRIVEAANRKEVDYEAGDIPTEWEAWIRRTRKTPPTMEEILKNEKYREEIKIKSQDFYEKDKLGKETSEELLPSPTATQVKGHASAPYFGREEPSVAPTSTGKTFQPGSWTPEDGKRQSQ

Work on “assembly factor NDUFAF2 (natural protein)” yielded a percent of particles that contain NDUFAF2 of 14%.

Source: doi:10.1101/2023.07.17.549284
